Test results reported in the supplement of paper PMC11780869.

Each sequence was assayed on Bacillus subtilis (assay: cleaved RNA product abundance (RNA/gDNA barcode ratio) relative to median wild-type variant (ratio to wild type); higher = more accumulation of the downstream cleavage product). Conditions: experiment (reporter, strain, medium): exp 8a: truncated aprE reporter, strain BJT201 with 2% xylose (RNase J1 expressed); cleavage site: glnRA (positions -5 to +31 mutated).
Outline: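 Truncated aprE or tetM reporter mRNAs with barcoded RNase Y cleavage-site windows, mutagenized from oligos at a 9% error rate, sat in the B. subtilis chromosome. Cells grew in LB at 37°C from OD600 0.0003 to 0.3. Gel-selected cleaved RNA was reverse transcribed and its barcodes sequenced with those from genomic DNA, collapsing by UMI. Cleaved product abundance equals the RNA:gDNA barcode ratio per construct over the median construct with the unmutated site.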

| Sequence | cleaved RNA product abundance |
| --- | --- |
| CGACATGTCCCGCTTCTTTCATTAATCCGTTAGCAACTGTTTTGCGATATACATTTACCATTTAAGAGGAGGAAT | 0.637 |
| CGACATGTCCCGCTTCTTTCATTAATCCGTTAGCAACTGTTTTGCGATATACATTTACCTTTTAAGAGGAGGAAT | 0.406 |
| CGACATGTCCCGCTTCTTTCATTAATCCGTTAGCAACTGTTTTGCGATATACATTTACGTTTTAAGAGGAGGAAT | 0.36 |
| CGACATGTCCCGCTTCTTTCATTAATCCGTTAGCAACTGTTTTGCGATATACATTTACTTTTTAAGAGGAGGAAT | 0.55 |
| CGACATGTCCCGCTTCTTTCATTAATCCGTTAGCAACTGTTTTGCGATATACATTTATCTTTTAAGAGGAGGAAT | 0.552 |
| CGACATGTCCCGCTTCTTTCATTAATCCGTTAGCAACTGTTTTGCTAAAGACATTTACCTTTTAAGAGGAGGAAT | 0.0969 |
| CGACATGTCCCGCTTCTTTCATTAATCCGTTAGCAACTGTTTTGCTAAATACATTTAACTTTTAAGAGGAGGAAT | 0.445 |
| CGACATGTCCCGCTTCTTTCATTAATCCGTTAGCAACTGTTTTGCTAAATACATTTACCTTTTAAGAGGAGGAAT | 0.524 |
| CGACATGTCCCGCTTCTTTCATTAATCCGTTAGCAACTGTTTTGCTAAATACATTTATCTTTTAAGAGGAGGAAT | 0.814 |
| CGACATGTCCCGCTTCTTTCATTAATCCGTTAGCAACTGTTTTGCTAAATACATTTGCCTTTTAAGAGGAGGAAT | 0.22 |
| CGACATGTCCCGCTTCTTTCATTAATCCGTTAGCAACTGTTTTGCTAAATACATTTTCCTTTTAAGAGGAGGAAT | 0.232 |
| CGACATGTCCCGCTTCTTTCATTAATCCGTTAGCAACTGTTTTGCTAAATACCTTTACCTTTTAAGAGGAGGAAT | 0.165 |
| CGACATGTCCCGCTTCTTTCATTAATCCGTTAGCAACTGTTTTGCTAAATAGATTTACCTTTTAAGAGGAGGAAT | 0.884 |
| CGACATGTCCCGCTTCTTTCATTAATCCGTTAGCAACTGTTTTGCTAAATTCATTTACCTTTTAAGAGGAGGAAT | 0.133 |
| CGACATGTCCCGCTTCTTTCATTAATCCGTTAGCAACTGTTTTGCTACATACAATTACCTTTTAAGAGGAGGAAT | 0.348 |
| CGACATGTCCCGCTTCTTTCATTAATCCGTTAGCAACTGTTTTGCTACATACACTTACCTTTTAAGAGGAGGAAT | 0.213 |
| CGACATGTCCCGCTTCTTTCATTAATCCGTTAGCAACTGTTTTGCTACATACATTAACCTTTTAAGAGGAGGAAT | 0.434 |
| CGACATGTCCCGCTTCTTTCATTAATCCGTTAGCAACTGTTTTGCTACATACATTTACCTTTTAAGAGGAGGAAT | 0.368 |
| CGACATGTCCCGCTTCTTTCATTAATCCGTTAGCAACTGTTTTGCTAGATACATATACCTTTTAAGAGGAGGAAT | 0.781 |
| CGACATGTCCCGCTTCTTTCATTAATCCGTTAGCAACTGTTTTGCTAGATACATTTACATTTTAAGAGGAGGAAT | 0.424 |
| CGACATGTCCCGCTTCTTTCATTAATCCGTTAGCAACTGTTTTGCTAGATACATTTACCTTTTAAGAGGAGGAAT | 0.43 |
| CGACATGTCCCGCTTCTTTCATTAATCCGTTAGCAACTGTTTTGCTAGATACATTTACTTTTTAAGAGGAGGAAT | 0.636 |
| CGACATGTCCCGCTTCTTTCATTAATCCGTTAGCAACTGTTTTGCTATAAAAATTTACCTTTTAAGAGGAGGAAT | 0.405 |
| CGACATGTCCCGCTTCTTTCATTAATCCGTTAGCAACTGTTTTGCTATAAACATTTAACTTTTAAGAGGAGGAAT | 0.912 |
| CGACATGTCCCGCTTCTTTCATTAATCCGTTAGCAACTGTTTTGCTATAAACATTTACCTTTTAAGAGGAGGAAT | 0.603 |

| Sequence | cleaved RNA product abundance |
| --- | --- |
| CGACATGTCCCGCTTCTTTCATTAATCCGTTAGCAACTGTTTTGCTATAAACATTTACGTTTTAAGAGGAGGAAT | 1.32 |
| CGACATGTCCCGCTTCTTTCATTAATCCGTTAGCAACTGTTTTGCTATAAACATTTATCTTTTAAGAGGAGGAAT | 0.717 |
| CGACATGTCCCGCTTCTTTCATTAATCCGTTAGCAACTGTTTTGCTATAAACCTTTACCTTTTAAGAGGAGGAAT | 0.163 |
| CGACATGTCCCGCTTCTTTCATTAATCCGTTAGCAACTGTTTTGCTATAAACTTTTACCTTTTAAGAGGAGGAAT | 0.318 |
| CGACATGTCCCGCTTCTTTCATTAATCCGTTAGCAACTGTTTTGCTATAAATATTTACCTTTTAAGAGGAGGAAT | 1.49 |
| CGACATGTCCCGCTTCTTTCATTAATCCGTTAGCAACTGTTTTGCTATACACATTTACATTTTAAGAGGAGGAAT | 0.372 |
| CGACATGTCCCGCTTCTTTCATTAATCCGTTAGCAACTGTTTTGCTATACACATTTACCTTTTAAGAGGAGGAAT | 0.459 |
| CGACATGTCCCGCTTCTTTCATTAATCCGTTAGCAACTGTTTTGCTATACACATTTACTTTTTAAGAGGAGGAAT | 0.146 |
| CGACATGTCCCGCTTCTTTCATTAATCCGTTAGCAACTGTTTTGCTATAGACATTCACCTTTTAAGAGGAGGAAT | 0.435 |
| CGACATGTCCCGCTTCTTTCATTAATCCGTTAGCAACTGTTTTGCTATAGACATTTAACTTTTAAGAGGAGGAAT | 1.15 |
| CGACATGTCCCGCTTCTTTCATTAATCCGTTAGCAACTGTTTTGCTATAGACATTTACCTTTTAAGAGGAGGAAT | 0.624 |
| CGACATGTCCCGCTTCTTTCATTAATCCGTTAGCAACTGTTTTGCTATATAAAATTACCTTTTAAGAGGAGGAAT | 0.606 |
| CGACATGTCCCGCTTCTTTCATTAATCCGTTAGCAACTGTTTTGCTATATAAATATACCTTTTAAGAGGAGGAAT | 1.3 |
| CGACATGTCCCGCTTCTTTCATTAATCCGTTAGCAACTGTTTTGCTATATAAATCTACCTTTTAAGAGGAGGAAT | 1.49 |
| CGACATGTCCCGCTTCTTTCATTAATCCGTTAGCAACTGTTTTGCTATATAAATGTACCTTTTAAGAGGAGGAAT | 1.78 |
| CGACATGTCCCGCTTCTTTCATTAATCCGTTAGCAACTGTTTTGCTATATAAATTAACCTTTTAAGAGGAGGAAT | 1.01 |
| CGACATGTCCCGCTTCTTTCATTAATCCGTTAGCAACTGTTTTGCTATATAAATTTACATTTTAAGAGGAGGAAT | 1.83 |
| CGACATGTCCCGCTTCTTTCATTAATCCGTTAGCAACTGTTTTGCTATATAAATTTACCTTTTAAGAGGAGGAAT | 0.938 |
| CGACATGTCCCGCTTCTTTCATTAATCCGTTAGCAACTGTTTTGCTATATAAATTTACGTTTTAAGAGGAGGAAT | 1.02 |
| CGACATGTCCCGCTTCTTTCATTAATCCGTTAGCAACTGTTTTGCTATATAAATTTATCTTTTAAGAGGAGGAAT | 2.04 |
| CGACATGTCCCGCTTCTTTCATTAATCCGTTAGCAACTGTTTTGCTATATACAACTACCTTTTAAGAGGAGGAAT | 1.12 |
| CGACATGTCCCGCTTCTTTCATTAATCCGTTAGCAACTGTTTTGCTATATACAATAACCTTTTAAGAGGAGGAAT | 0.855 |
| CGACATGTCCCGCTTCTTTCATTAATCCGTTAGCAACTGTTTTGCTATATACAATTAACTTTTAAGAGGAGGAAT | 2.58 |
| CGACATGTCCCGCTTCTTTCATTAATCCGTTAGCAACTGTTTTGCTATATACAATTACCTTTTAAGAGGAGGAAT | 0.983 |
| CGACATGTCCCGCTTCTTTCATTAATCCGTTAGCAACTGTTTTGCTATATACAATTATCTTTTAAGAGGAGGAAT | 0.873 |
